Target: human wt Ecad-GFP (wild-type E-cadherin fused to EGFP) (human) (UniProt P12830)
Test: TEM of gold nanoparticle

percent of NPs at <15 nm from their nearest neighbour: 20.6%
Substance: human wt Ecad-GFP (wild-type E-cadherin fused to EGFP) (from UniProt P12830 23-882) (natural protein)
